Reference: article PMC8567202, “Phosphoinositide-binding activity of Smad2 is essential for its function in TGF-β signaling” (The Journal of Biological Chemistry, 2021)
Changes are numbered by the printed parent chain. In names and notes the source's numbering stands.

B1: Smad2-K420A: K420A mutant of full-length Smad2; predominantly TβRI binding-compromised (protein)
chain: MSSILPFTPPVVKRLLGWKKSAGGSGGAGGGEQNGQEEKWCEKAVKSLVKKLKKTGRLDELEKAITTQNCNTKCVTIPSTCSEIWGLSTANTVDQWDTTGLYSFSEQTRSLDGRLQVSHRKGLPHVIYCRLWRWPDLHSHHELKAIENCEYAFNLKKDEVCVNPYHYQRVETPVLPPVLVPRHTEILTELPPLDDYTHSIPENTNFPAGIEPQSNYIPETPPPGYISEDGETSDQQLNQSMDTGSPAELSPTTLSPVNHSLDLQPVTYSEPAFWCSIAYYELNQRVGETFHASQPSLTVDGFTDPSNSERFCLGLLSNVNRNATVEMTRRHIGRGVRLYYIGGEVFAECLSDSAIFVQSPNCNQRYGWHPATVCKIPPGCNLKIFNNQEFAALLAQSVNQGFEAVYQLTRMCTIRMSFVAGWGAEYRRQTVTSTPCWIELHLNGPLQWLDKVLTQMGSPSVRCSSMS
modifications: left off: His6, N-terminal, state not stated
B2: Smad2-E425K: charge-reversal mutant of full-length Smad2; PI(4,5)P2 and TβRI binding-enhanced (protein)
chain: B1 chain with A420K, E425K
modifications: left off: His6, N-terminal, state not stated
B3: Smad2 WT: bacterially expressed full-length Smad2 wild-type (protein)
chain: B1 chain with A420K
modifications: left off: His6, N-terminal, state not stated
notes: bacterially expressed full-length Smad2 wild-type

Key:
[1] = SPR membrane binding to POPC/POPS/PI(4,5)P2 vesicles; settings: for Kd: L1 chip, 23 °C, 20 mM Tris, pH 7.4, 0.16 M NaCl, average ±S.D., n = 3, read-out: Kd for lipid binding, PC/PS/PI(4,5)P2
Source text: It has been generally thought that Smad2 and Smad3 are targeted to the activated TGF-β signaling complex by direct interaction with TβRI ([1], [2]) or via SARA ([7]). However, it has been shown that many cytosolic proteins that are targeted to membrane proteins or membrane-anchored signaling complexes have affinity for membrane lipids ([14]), phosphoinositides (PtdInsPs) in particular, and that their membrane recruitment is mediated by coincident lipid–protein and protein–protein interactions ([15], [16]). For most of these proteins, their PtdInsP specificity directs their membrane targeting behaviors: e.g., PI(4,5)P2-specific proteins are recruited to PM where the highest concentration of PI(4,5)P2 is found, whereas PI(3)P-specific proteins are targeted to PI(3)P-rich EEs ([17], [18]). To resolve uncertainty about the functional location of the activated TGF-β signaling complex, we thus explored the possibility that lipid-binding activity of Smad2 may play a role in specific targeting of Smad2 to the active TGF-β receptor complex either at the PM or at EEs. Lipid-binding activity of Smad proteins has not been reported to date. We thus measured the binding of bacterially expressed Smad2 to large unilamellar vesicles (LUVs) containing various lipids by surface plasmon resonance (SPR) analysis ([19], [20]). Lipid selectivity determined by SPR analysis is typically reported as the relative resonance unit (RU) values for different lipids at a given protein concentration ([21], [22]). Although simple and intuitive, this type of analysis can sometimes yield misleading and erroneous results because some proteins show widely different RU values when bound to different lipid surfaces. Thus, a more reliable parameter that represents the fraction of the membrane bound protein molecules at a given protein concentration would be a normalized value of RU/RUmax where RUmax indicates the maximal RU value when a given lipid surface is saturated with the protein molecules. We thus estimated RUmax for different lipid species by employing the highest protein concentration experimentally feasible (e.g., 1 μM) and determined RU/RUmax for different lipids at the protein concentration that allows robust comparison (e.g., 100 nM). Once the lipid selectivity has been determined by this semiquantitative approach, we then rigorously determined and compared Kd values for selected lipids for more accurate quantitative determination of lipid selectivity.
Figure 1 Membrane-binding properties of Smad2 FL protein and MH2 domain determined by SPR analysis.A, PtdInsP selectivity of Smad2-FL determined using POPC/POPS/PtdInsP (77:20:3 in mole ratio) LUVs coated on the L1 sensor chip. The protein concentration was 100 nM. PIP3 indicates PI(3,4,5)P3. B, determination of Kd for binding of Smad2 FL to different LUVs. The protein concentration was varied from 0 to 500 nM. C, PI(4,5)P2 concentration dependence of membrane binding of Smad2-FL determined using POPC/POPS/PI(4,5)P2 (77-x:20:x, x = 0–5 mol%) LUVs. The protein concentration was 100 nM. D, PtdInsP selectivity of the Smad2 MH2 domain determined using POPC/POPS/PtdInsP (77:20:3 in mole ratio) LUVs. The protein concentration was 100 nM. Normalized RU values (RU/RUmax) were used for all figures but (C) for more accurate determination of PtdInsP selectivity. RUmax values determined for different vesicles at 1 μM Smad2 were: 280 ± 20 for POPC/POPS/PI(4,5)P2 (77:20:3), 370 ± 10 for POPC/POPS/PI(3,4)P2 (77:20:3), 400 ± 15 for POPC/POPS/PI(3,4,5)P3 (or PIP3) (77:20:3), 400 ± 20 for POPC/POPS/PI(3)P (77:20:3), and 380 ± 20 for POPC/POPS (80:20). Only the association phases of the sensorgrams are shown and used for further analysis. Each set of sensorgrams shown in A and D are representatives of >5 independent measurements. Data points shown in B and C are the average ±S.D. values from triplicate measurements. […]

HeLa cells = assay: Nuclear translocation of EGFP-Smad2; format: cell-based; settings: for nuclear transport after TGF-β stimulation: HeLa cells with endogenous Smad2 suppressed, 10 ng/ml TGF-β for 1 h
Method: (§1) Two separate gels were used to accommodate all mutants. An empty vector transfection (vehicle) was used for a negative control for each gel. Glyceraldehyde 3-phosphate dehydrogenase (GAPDH) was used as a gel loading control. Data in A and B are quantified in Fig. S3A. C, TGF-β stimulated (10 ng/ml for 1 h) nuclear translocation of mouse EGFP-WT, -K420A, -W422A, -E425K, -Y426A, and -R427A/R428A transfected into HeLa cells whose endogenous Smad2 was suppressed by siRNA. For Smad2-WT, the effect of PI(4,5)P2 depletion was measured. Arrows indicate nuclear accumulation of EGFP-WT and EGFP-E425K. Scale bars indicate 10 μm. D, quantification of (C). (Inuc/Icyto) was calculated from total nuclear and cytosolic fluorescence intensity values. Blank and black bars indicate values before and after TGF-β stimulation. Error bars indicate S.D. values from >3 measurements (n = 10). E, Smad2 transcriptional activity measured by the luciferase assay. Blank and black bars indicate values before and after TGF-β stimulation. Error bars indicate S.D. values from >3 measurements (n = 10).
The ratio of nuclear to cytoplasmic protein was calculated from the fluorescence intensity of nucleus (Inuc) and the cytoplasm (Fcyto) in cross-section images of cells using the line profile function of Image-Pro Plus software (Media Cybernetics). Briefly, at least five different lines were drawn across the cross-sectional image of each cell and the average Inuc and ICyto values were calculated along the lines. Typically, more than ten cell images were analyzed for each data set to determine the average and SD values.

[2] = tested on: Smad2 transcriptional activity; assay: Dual luciferase reporter assay for Smad2 transcriptional activity; format: cell-based; settings: for Smad2 transcriptional activity after TGF-β stimulation: Smad2-suppressed HeLa cells, luciferase, 10 ng/ml TGF-β for 48 h
Method: as §1
HeLa cells were plated on 6-well plates at the density of ∼1.5 × 10^5 and treated with siRNA as described above. The reporter gene containing three TGF-β/activin response element (ARE) coupled with the luciferase gene (pGL2 3ARE-Lux: Addgene) was used for enhanced activity ([55]). On translocation into the nucleus, receptor-activated Smad2 associates with the DNA-binding protein FAST1 to form a transcriptional complex on the ARE of the Mix.2 promoter. After 24 h, the cell media were replaced with fresh media and cells were cotransfected with 375 ng pGL2 3ARE-Lux experimental vector, 37.5 ng pGL4.73[hRluc/SV40] internal control vector (Promega), 337.5 ng FAST1, and 750 ng of pcDNA 3.1 plasmid harboring Smad2 WT or mutant using the jetPRIME transfection system (Polyplus transfection) according to the manufacturer's protocols. After 24 h of transfection, cells were placed in fresh media and stimulated with 10 ng/ml TGF-β for 48 h. Then the cells were washed with phosphate buffer saline, and the dual luciferase reporter assay was performed according to the manufacturer's protocols (Promega). All 3ARE-Luc activity values were normalized using the pGL4.73[hRluc/SV40] values as a reference.

[3] = SPR, POPC/POPS/PI(4,5)P2 (77:20:3)

Molecule | Kd [1, 3] [nM] | binding to POPC/POPS/PI(4,5)P2 (77:20:3) ([1]; SPR, RU/RUmax, 100 nM protein) | lower affinity for POPC/POPS/PI(4,5)P2 (77:20:3) than WT ([1]; SPR, decrease in affinity vs WT) [%] | nuclear transport after TGF-β stimulation (HeLa cells) | Smad2 transcriptional activity after TGF-β stimulation [2] | PI(4,5)P2 selectivity over POPC/POPS (80:20) ([1]; SPR, RU/RUmax, 100 nM protein) | higher affinity for POPC/POPS/PI(4,5)P2 (77:20:3) than WT ([1]; SPR, increase in affinity vs WT) [%] | RUmax ([1]; POPC/POPS/PI(4,5)P2 (77:20:3), 1 μM Smad2) | affinity for PI(4,5)P2-containing vesicles relative to PI(3)P-containing ones ([1]; SPR, Kd comparison) | increase in membrane affinity by 3 mol% PI(4,5)P2 over POPC/POPS (80:20) vesicles ([1]; SPR, Kd comparison) [fold] | PI(4,5)P2 concentration dependence of membrane binding ([1]; SPR, POPC/POPS/PI(4,5)P2 (77-x:20:x, x = 0–5 mol%), 100 nM protein) | nuclear transport after PI(4,5)P2 depletion (HeLa cells; HeLa cells, PI(4,5)P2 depletion, TGF-β 10 ng/ml for 1 h) | TGF-β-induced Smad2 transcriptional activity after PI(4,5)P2 depletion ([2]; HeLa cells, PI(4,5)P2 depletion)
B1 | 120 ± 12 | modestly and similarly reduced binding to both vesicles | 20 | did not show nuclear transport | much reduced activity even after TGF-β stimulation |  |  |  |  |  |  |  | 
B2 | 70 ± 7 | modestly higher membrane binding than WT |  | excessively transported to the nucleus | higher transcriptional activity than exogeneous Smad2 WT | retaining the PI(4,5)P2 selectivity of WT | ~40 |  |  |  |  |  | 
B3 | 100 ± 20 |  |  |  | fully restored Smad2 transcriptional activity |  |  | 280 ± 20 | twofold higher affinity | 5.6 | dependent on the PI(4,5)P2 concentration | abrogated the nuclear transport of Smad2 WT | abrogated TGF-β-induced Smad2 transcriptional activity
